Reference: the supplement of paper PMC12764529
± gives the half width of the 95% confidence interval.

Tests used:
[1] = folding stability dG unfold from trypsin proteolysis; higher = more stable
Method in brief: (§1)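 Digests were run with trypsin and chymotrypsin at 11 concentrations in threefold dilutions, plus a no-protease condition, on designed mini-proteins in a PA-tagged cDNA display construct. The mini-proteins were under 80 residues, had no cysteine, and were kept only when AlphaFold2 dimer inter-PAE was above 15. After sequencing, Bayesian fitting of the counts gave K50, from which unfolding free energy was derived against a sequence-predicted unfolded-state K50 and a shared folded-state K50, per protease or combined.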

[2] = folding stability dG unfold from chymotrypsin proteolysis; higher = more stable
Method in brief: as §1

[3] = folding stability dG unfold (combined trypsin and chymotrypsin); higher = more stable
Method in brief: as §1

Sequence | folding stability dG unfold [1] | folding stability dG unfold [2] | folding stability dG unfold [3]
SAGGSAGGMVTFTVEYESDPALLEKLKEELPGVEILEVKREGPKKTITITIKVPSEEKAKKFLSSAGGSAGG [r6_334_JUSTAS] | 0.704 ± 0.086 kcal/mol | 1.16 ± 0.11 kcal/mol | 1 ± 0.12 kcal/mol
EKKTLTVLIEVPPEKLEEALARALELAKALPPGQKLEIEIVNEDGTVVRVTVTVDENGEIHIDVEVLPRPPS [r1_350_TrROS_Hall] | 1.76 ± 0.073 kcal/mol | 2.36 ± 0.16 kcal/mol | 2.23 ± 0.16 kcal/mol
SAGGSAGGSMTITYDPVSNTYTVNLSLEGGTKTYTVPSLEALKATLKAEGLPWGPPPITTVSASAGGSAGGS [r12_834_JUSTAS] | 3.43 ± 0.08 kcal/mol | 5.05 ± 0.063 kcal/mol | 4.96 ± 0.079 kcal/mol
SAGGSAGGSAGGSKKKIKIYIENENGEKKTIEIEVEGDIDEIAKELAKKYNVKIVKIEPSAGGSAGGSAGGS [r4_412_TrROS_Hall] | 2.77 ± 0.11 kcal/mol | 3.16 ± 0.081 kcal/mol | 3.05 ± 0.05 kcal/mol
SAGGSAGGMSPDAKPIGEKTDESPGPEKVTTTTLKSPDPSLTYTVTTTTVGSTTTTTTTAVPVLSAGGSAGG [r6_923_JUSTAS] | 0.439 ± 0.051 kcal/mol | 0.134 ± 0.4 kcal/mol | 0.261 ± 0.1 kcal/mol
SAGMKTLEKTGSAAKIEEAIAAGKSLEEVFETAGKDGGTSRTLTEPNRTLTFSGETSKPGVATLTTIPESAG [r5_343_JUSTAS] | -0.662 ± 0.55 kcal/mol | 0.279 ± 0.18 kcal/mol | -0.0165 ± 0.15 kcal/mol
SAGGSAGGSANRKVIQFDSPEEILEAIDEAPEDDPVIIEWHDPDGGEPWWIKFDGDEIELIMSAGGSAGGSA [r18_407_TrROS] | -0.66 ± 0.23 kcal/mol | -0.277 ± 0.41 kcal/mol | -0.511 ± 0.45 kcal/mol
SALKIEISFPGNAGEVRERVLGREDGSYEVEFLVTFPTPGDGIPSVLRVTYRVDPVSGKIEPRLEPVDASAG [r14_590_TrMRF] | 1.48 ± 0.025 kcal/mol | 3.24 ± 0.036 kcal/mol | 2.65 ± 0.052 kcal/mol
SAGGSAGGSAGMRYEIEVEEVPPGLVRIRVRVDGKEYTILISEEEAKRLAEELGVEIEPVSAGGSAGGSAGG [r17_109_TrROS_Hall] | 3.24 ± 0.12 kcal/mol | 2.28 ± 0.07 kcal/mol | 2.76 ± 0.19 kcal/mol
SAGGSAGGKKKYRALITLRSKDGKPIAPIEIETDSPEELLKTAKKIIEEATKENEPVEIKVEEYSAGGSAGG [r6_285_TrMRF] | 1.09 ± 0.054 kcal/mol | 1.8 ± 0.093 kcal/mol | 1.59 ± 0.11 kcal/mol
SAGMTITVKPGEKVKVTIKVEVFDENGKLIKKEEKEVEITVKEGDEITIKIKLDKPVKVKIEIKIEKKSAGG [r19_295_TrROS_Hall] | 2.67 ± 0.17 kcal/mol | 2.01 ± 0.15 kcal/mol | 2.29 ± 0.25 kcal/mol
SAGGSAGLEGVAKAILDKLPPNRKIAAFTVNEEEAKTATFTTPDGNEINITAAGDKIASIDIIDAESAGGSA [r15_175_TrMRF] | -1.09 ± 0.51 kcal/mol | 0.429 ± 0.19 kcal/mol | 0.0224 ± 0.1 kcal/mol
SAGMPPTTVEVKVTVVKTPEGYEVVAEVVTPDRTETLTIPPHLGLEEAKARLEAVLAERGLTLVDWTLESAG [r5_305_JUSTAS] | 2.71 ± 0.047 kcal/mol | 2.65 ± 0.041 kcal/mol | 2.65 ± 0.057 kcal/mol
SAGGSAGGSAGKKEKVILLPVDAEPDETPEELAKKLKELNPDVEVLGFDPETGYVLVKVPSAGGSAGGSAGG [r11_465_TrMRF] | 0.107 ± 0.053 kcal/mol | -0.0143 ± 0.28 kcal/mol | 0.149 ± 0.18 kcal/mol
SAGGSAGGSAKPLTVEEIIKKLNLPPNVEIVDVKVDYGKTENKPIIVLVLKTKDKPYLPVFASAGGSAGGSA [r18_354_TrMRF] | 1.25 ± 0.097 kcal/mol | 1.91 ± 0.065 kcal/mol | 1.61 ± 0.17 kcal/mol
SAGGSAGGSAGGPLIVFERNADGTLTAVAVDEETGEVTVTRVTLKDGKLTVETETLPLDESAGGSAGGSAGG [r7_28_TrROS_Hall] | 1.49 ± 0.048 kcal/mol | 1.82 ± 0.017 kcal/mol | 1.65 ± 0.042 kcal/mol

Sequence | folding stability dG unfold [1] | folding stability dG unfold [2] | folding stability dG unfold [3]
SAGGSAGETVYRVKIRVNGEELEIEVSAEELEALKALPGLEIELVRVEPAPPPEREETVVPEEEEESAGGSA [r15_443_TrROS_Hall] | 3.43 ± 0.17 kcal/mol | 3.36 ± 0.13 kcal/mol | 3.43 ± 0.12 kcal/mol
SAGGSAGGSMVIRVTVKLPNGEEKVFEIEVSEEELKNMSIEELKKLAEELGLPEDVKIELVPPSAGGSAGGS [r12_742_TrROS_Hall] | 3.29 ± 0.12 kcal/mol | 3.29 ± 0.17 kcal/mol | 3.33 ± 0.19 kcal/mol
SAGGEEVKTIKVTLAFYNPETGELVAEVEATATLVDGKLVLTTTVTFRPAPAGEPVTVTVTVVEPEESAGGS [r16_327_TrROS_Hall] | 2.93 ± 0.39 kcal/mol | 3.63 ± 0.13 kcal/mol | 3.39 ± 0.24 kcal/mol
SAGGSAGGSAPRVRYRRRVLVYFPADGSVVPVVLEVSPGPLTLRLDLPAASFPPVRIAPLGSAGGSAGGSAG [r3_454_TrMRF] | 1.28 ± 0.066 kcal/mol | 2.58 ± 0.098 kcal/mol | 1.98 ± 0.14 kcal/mol
SAGGSAGGSAGEIVEVDGKLYIRVRTKDGEWKLIEMSADEIASLPAENVEEVEIVDPKDLSAGGSAGGSAGG [r11_779_TrROS_Hall] | 2.6 ± 0.1 kcal/mol | 3.16 ± 0.075 kcal/mol | 3.08 ± 0.11 kcal/mol
SAGGSAGGSAGASLKEELGFAEVLSRSPTPDTEPLLLKHPEGGELVTVEVDAATAVEWLESAGGSAGGSAGG [r11_630_JUSTAS] | 0.343 ± 0.091 kcal/mol | 0.424 ± 0.17 kcal/mol | 0.354 ± 0.24 kcal/mol
SAGGSAGGSAGDPVLTVTLLDDNHPVTLTYHPGEKTVTVSVYPLKSGKVLGTVTVPASELSAGGSAGGSAGG [r11_231_TrMRF] | -1.45 ± 0.71 kcal/mol | 0.37 ± 0.13 kcal/mol | -0.0506 ± 0.12 kcal/mol
SAGGSAGGSAGPRYRLRIELRLERNEDGSLSLSAKIEIERIEPPPPPPRVVLYNGKLYLLSAGGSAGGSAGG [r17_418_TrROS_Hall] | 3.91 ± 0.41 kcal/mol | 4.35 ± 0.21 kcal/mol | 4.28 ± 0.34 kcal/mol
SKVKIVKVEYDKETNVVTVTIYDEKTKKKIEIRYTPGKVEIVVEIDGKKLVLKFKTKEEALEAAKKLLKKSA [r9_527_TrROS_Hall] | 2.72 ± 0.089 kcal/mol | 3.94 ± 0.079 kcal/mol | 3.61 ± 0.2 kcal/mol
SAEVRPDEVLRIEVRLRVGDVEFTAEAEIPAGLSEEEIREAVERIREEAERLAERLRRLPPLRPPEELLSAG [r14_70_TrMRF] | 1.63 ± 0.086 kcal/mol | 2.96 ± 0.14 kcal/mol | 2.64 ± 0.43 kcal/mol
SAWIEIEKDPDGMFELEIPWPDGHPVKIHYNPDDGKPLHIMFPNGWHLQIWISPDGKIEIEDIHPIPPNSAG [r14_877_TrROS] | 3.11 ± 0.24 kcal/mol | 3.12 ± 0.049 kcal/mol | 3.01 ± 0.13 kcal/mol
SAGGSAGGMTSDKPVLPALIRVYYPNEGREETIPVLLGEDMPLEEALRIARELAHPDAKAEILNSAGGSAGG [r6_440_TrMRF] | -0.183 ± 0.093 kcal/mol | 0.624 ± 0.053 kcal/mol | 0.395 ± 0.06 kcal/mol
SAGGMIRIERDGDRLTIEIHLPEGEELTPEQLEELARALLEELGPDARVVRVERLEDGTVRIEVELPSAGGS [r8_103_TrROS_Hall] | 3.32 ± 0.14 kcal/mol | 2.35 ± 0.07 kcal/mol | 2.88 ± 0.13 kcal/mol
SAGGSAGGSGNATVMLMFPIEISITVMEWDNGKPKMKTQEIEIWVMIMIPVPPPPDPGDPEWNSAGGSAGGS [r12_713_TrROS] | 2.84 ± 0.076 kcal/mol | 4.09 ± 0.071 kcal/mol | 3.76 ± 0.11 kcal/mol
SAGKKKKITIEIVIKPKTLEELENKIKEIAKKLGLKKIEKIEIVKIEKDKNGKIKKVVIKITLTEEALKSAG [r5_575_TrROS_Hall] | 1.51 ± 0.12 kcal/mol | 3.25 ± 0.24 kcal/mol | 2.61 ± 0.31 kcal/mol
